From US20040106557A1

Biological target: Prostate specific antigen (PSA), purified from human seminal fluid (human) (UniProt P07288)
Assay: gel filtration peak of ~30 kD after thrombin cleavage, GST-peptide IFMA on PSA captured by MAb 5E4

Binding activity (% of total), remaining after thrombin-treatment: 5.2%
Substance: ~30 kD component of thrombin-cleaved GST-C-4 (from UniProt P08515 1-218)
